The test deals with T1, Human c-Met ECD (Flag and strep tag) (human, UniProt P08581 25-932).
T1 construct: also called HMet; Human Wt c-Met; not shown: Flag and strep tag
Nature of the test: ELISA; mAb immobilized (2 µg/ml), c-Met protein added, streptavidin-HRP. Background: An ELISA detects its analyte on a solid surface through an enzyme-linked reagent.

T1 sequence (P08581 25-932): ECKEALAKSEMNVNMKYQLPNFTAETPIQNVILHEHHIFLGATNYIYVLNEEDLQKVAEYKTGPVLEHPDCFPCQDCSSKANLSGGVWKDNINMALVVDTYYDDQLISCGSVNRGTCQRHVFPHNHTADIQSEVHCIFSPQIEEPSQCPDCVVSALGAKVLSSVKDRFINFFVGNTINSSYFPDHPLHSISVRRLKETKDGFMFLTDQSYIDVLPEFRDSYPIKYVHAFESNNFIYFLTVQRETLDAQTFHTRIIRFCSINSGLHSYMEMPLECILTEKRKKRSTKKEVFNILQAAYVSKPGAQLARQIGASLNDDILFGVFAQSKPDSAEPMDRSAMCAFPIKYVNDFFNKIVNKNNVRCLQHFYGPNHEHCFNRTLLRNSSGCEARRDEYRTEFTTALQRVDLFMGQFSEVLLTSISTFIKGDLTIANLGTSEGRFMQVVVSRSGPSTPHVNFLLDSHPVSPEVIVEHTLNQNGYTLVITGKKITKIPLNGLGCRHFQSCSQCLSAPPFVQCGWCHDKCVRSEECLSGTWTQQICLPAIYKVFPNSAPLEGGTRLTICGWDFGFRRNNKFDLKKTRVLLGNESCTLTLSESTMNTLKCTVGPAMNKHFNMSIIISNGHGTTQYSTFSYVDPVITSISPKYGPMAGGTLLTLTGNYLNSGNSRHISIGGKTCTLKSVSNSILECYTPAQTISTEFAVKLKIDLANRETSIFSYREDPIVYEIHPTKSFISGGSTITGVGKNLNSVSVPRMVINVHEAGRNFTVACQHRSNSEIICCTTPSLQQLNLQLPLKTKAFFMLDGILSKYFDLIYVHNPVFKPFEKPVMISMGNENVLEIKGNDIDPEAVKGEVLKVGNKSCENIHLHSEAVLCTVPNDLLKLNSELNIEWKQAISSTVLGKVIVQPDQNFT

B1: 48A2 (antibody, V domains shown)
VH: EVQLVQPGVELRNPGASVKVSCKASGYIFTMNSIDWVRQAPGQGLEWMGRIDPEDGGTKYAQKFQGRVTFTADTSTSTAYVELNSLRSEDTAVYYCARVDDYYLGYDYWGQGTQVTVSS
VL: DIVMTQTPTSVTASAGDKVTINCKSSQSVLFSSNQKNYLAWYQQRLGQSPRLLIYWASIRESGVPDRFSGSGSATDFTLTISNFQPEDAAVYYCQQGYSFPYSFGSGTRLEIR
One may read the EC50 as the concentration that produces a half-maximal response. Regarding B1, the EC50 is 0.045 µg/mL.

Values taken from patent publication US20140286976A1 (ARGEN X B V, published 2014).
